Source: patent EP4692114A1, “CALCITONIN ANALOGUE, AND DERIVATIVE THEREOF AND USE THEREOF” (Hangzhou Sciwind Biosciences Co., Ltd., priority 2023, dated 2024)
*1 amine or outer side, *2 acyl side, *3 side chain or, on linkers, in order; H or OH if unused. The star is where a group is joined. C22 diacid = O=C(O)CCCCCCCCCCCCCCCCCCCCC(=O)*; C20 diacid = O=C(O)CCCCCCCCCCCCCCCCCCC(=O)*; γGlu = O=C(O)[C@H](CCC(=O)[*:2])N[*:1]; AEEA = NCCOCCOCC(=O)O

T1: human amylin receptor (AMY3) on CHO-K1/Gal5/AMY3 cells (human, UniProt P30988 25-474; O60896 24-148)
T1 sequence (looked up) 1: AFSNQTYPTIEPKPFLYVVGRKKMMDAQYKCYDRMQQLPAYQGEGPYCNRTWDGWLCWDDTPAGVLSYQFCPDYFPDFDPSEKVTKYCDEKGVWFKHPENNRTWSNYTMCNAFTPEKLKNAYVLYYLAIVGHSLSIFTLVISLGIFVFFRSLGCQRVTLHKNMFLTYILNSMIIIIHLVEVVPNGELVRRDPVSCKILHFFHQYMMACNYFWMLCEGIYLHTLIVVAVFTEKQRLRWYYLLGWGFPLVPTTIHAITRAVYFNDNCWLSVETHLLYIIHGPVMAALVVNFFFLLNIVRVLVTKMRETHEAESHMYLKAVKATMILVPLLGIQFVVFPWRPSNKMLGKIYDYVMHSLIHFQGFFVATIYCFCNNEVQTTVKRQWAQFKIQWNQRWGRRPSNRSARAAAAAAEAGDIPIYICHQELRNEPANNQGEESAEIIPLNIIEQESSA
T1 sequence (looked up) 2: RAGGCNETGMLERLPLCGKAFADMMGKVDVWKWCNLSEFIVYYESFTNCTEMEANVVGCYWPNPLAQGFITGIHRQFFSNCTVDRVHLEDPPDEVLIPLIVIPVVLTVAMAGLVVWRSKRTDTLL

B1: calcitonin derivative M18 (peptide)
peptide: {C20 diacid-γGlu}-ASQLSTAVLGRLSQELHRLQDLPRTDVGSGSP-NH2
SMILES: CC(C)C[C@H](NC(=O)[C@H](CCCNC(=N)N)NC(=O)CNC(=O)[C@H](CC(C)C)NC(=O)[C@@H](NC(=O)[C@H](C)NC(=O)[C@@H](NC(=O)[C@H](CO)NC(=O)[C@H](CC(C)C)NC(=O)[C@H](CCC(N)=O)NC(=O)[C@H](CO)NC(=O)[C@H](C)NC(=O)CC[C@H](NC(=O)CCCCCCCCCCCCCCCCCCC(=O)O)C(=O)O)[C@@H](C)O)C(C)C)C(=O)N[C@@H](CO)C(=O)N[C@@H](CCC(N)=O)C(=O)N[C@@H](CCC(=O)O)C(=O)N[C@@H](CC(C)C)C(=O)N[C@@H](Cc1c[nH]cn1)C(=O)N[C@@H](CCCNC(=N)N)C(=O)N[C@@H](CC(C)C)C(=O)N[C@@H](CCC(N)=O)C(=O)N[C@@H](CC(=O)O)C(=O)N[C@@H](CC(C)C)C(=O)N1CCC[C@H]1C(=O)N[C@@H](CCCNC(=N)N)C(=O)N[C@H](C(=O)N[C@@H](CC(=O)O)C(=O)N[C@H](C(=O)NCC(=O)N[C@@H](CO)C(=O)NCC(=O)N[C@@H](CO)C(=O)N1CCC[C@H]1C(N)=O)C(C)C)[C@@H](C)O
B2: calcitonin derivative M50 (peptide)
peptide: {C20 diacid-γGlu}-ASQLSTAVLGRLSDELHRLQDLPRTDVGSGSP-NH2
SMILES: CC(C)C[C@H](NC(=O)[C@H](CCCNC(=N)N)NC(=O)CNC(=O)[C@H](CC(C)C)NC(=O)[C@@H](NC(=O)[C@H](C)NC(=O)[C@@H](NC(=O)[C@H](CO)NC(=O)[C@H](CC(C)C)NC(=O)[C@H](CCC(N)=O)NC(=O)[C@H](CO)NC(=O)[C@H](C)NC(=O)CC[C@H](NC(=O)CCCCCCCCCCCCCCCCCCC(=O)O)C(=O)O)[C@@H](C)O)C(C)C)C(=O)N[C@@H](CO)C(=O)N[C@@H](CC(=O)O)C(=O)N[C@@H](CCC(=O)O)C(=O)N[C@@H](CC(C)C)C(=O)N[C@@H](Cc1c[nH]cn1)C(=O)N[C@@H](CCCNC(=N)N)C(=O)N[C@@H](CC(C)C)C(=O)N[C@@H](CCC(N)=O)C(=O)N[C@@H](CC(=O)O)C(=O)N[C@@H](CC(C)C)C(=O)N1CCC[C@H]1C(=O)N[C@@H](CCCNC(=N)N)C(=O)N[C@H](C(=O)N[C@@H](CC(=O)O)C(=O)N[C@H](C(=O)NCC(=O)N[C@@H](CO)C(=O)NCC(=O)N[C@@H](CO)C(=O)N1CCC[C@H]1C(N)=O)C(C)C)[C@@H](C)O
B3: calcitonin derivative M52 (peptide)
peptide: {C20 diacid}-EASQLSTAVLGRLSEELHRLQDYPRTDVGSGSP-NH2
SMILES: CC(C)C[C@H](NC(=O)[C@H](CCCNC(=N)N)NC(=O)CNC(=O)[C@H](CC(C)C)NC(=O)[C@@H](NC(=O)[C@H](C)NC(=O)[C@@H](NC(=O)[C@H](CO)NC(=O)[C@H](CC(C)C)NC(=O)[C@H](CCC(N)=O)NC(=O)[C@H](CO)NC(=O)[C@H](C)NC(=O)[C@H](CCC(=O)O)NC(=O)CCCCCCCCCCCCCCCCCCC(=O)O)[C@@H](C)O)C(C)C)C(=O)N[C@@H](CO)C(=O)N[C@@H](CCC(=O)O)C(=O)N[C@@H](CCC(=O)O)C(=O)N[C@@H](CC(C)C)C(=O)N[C@@H](Cc1c[nH]cn1)C(=O)N[C@@H](CCCNC(=N)N)C(=O)N[C@@H](CC(C)C)C(=O)N[C@@H](CCC(N)=O)C(=O)N[C@@H](CC(=O)O)C(=O)N[C@@H](Cc1ccc(O)cc1)C(=O)N1CCC[C@H]1C(=O)N[C@@H](CCCNC(=N)N)C(=O)N[C@H](C(=O)N[C@@H](CC(=O)O)C(=O)N[C@H](C(=O)NCC(=O)N[C@@H](CO)C(=O)NCC(=O)N[C@@H](CO)C(=O)N1CCC[C@H]1C(N)=O)C(C)C)[C@@H](C)O
B4: calcitonin derivative M35 (peptide)
peptide: {C20 diacid-γGlu}-RSQLSTDVLGRLSQELHRLQDYPRTDVGSGSP-NH2
SMILES: CC(C)C[C@H](NC(=O)[C@H](CCCNC(=N)N)NC(=O)CNC(=O)[C@H](CC(C)C)NC(=O)[C@@H](NC(=O)[C@H](CC(=O)O)NC(=O)[C@@H](NC(=O)[C@H](CO)NC(=O)[C@H](CC(C)C)NC(=O)[C@H](CCC(N)=O)NC(=O)[C@H](CO)NC(=O)[C@H](CCCNC(=N)N)NC(=O)CC[C@H](NC(=O)CCCCCCCCCCCCCCCCCCC(=O)O)C(=O)O)[C@@H](C)O)C(C)C)C(=O)N[C@@H](CO)C(=O)N[C@@H](CCC(N)=O)C(=O)N[C@@H](CCC(=O)O)C(=O)N[C@@H](CC(C)C)C(=O)N[C@@H](Cc1c[nH]cn1)C(=O)N[C@@H](CCCNC(=N)N)C(=O)N[C@@H](CC(C)C)C(=O)N[C@@H](CCC(N)=O)C(=O)N[C@@H](CC(=O)O)C(=O)N[C@@H](Cc1ccc(O)cc1)C(=O)N1CCC[C@H]1C(=O)N[C@@H](CCCNC(=N)N)C(=O)N[C@H](C(=O)N[C@@H](CC(=O)O)C(=O)N[C@H](C(=O)NCC(=O)N[C@@H](CO)C(=O)NCC(=O)N[C@@H](CO)C(=O)N1CCC[C@H]1C(N)=O)C(C)C)[C@@H](C)O
B5: calcitonin derivative M34 (peptide)
peptide: {C20 diacid-γGlu}-ASELSTAVLGRLSEELHRLEDYPRTDVGSGSP-NH2
SMILES: CC(C)C[C@H](NC(=O)[C@H](CCCNC(=N)N)NC(=O)CNC(=O)[C@H](CC(C)C)NC(=O)[C@@H](NC(=O)[C@H](C)NC(=O)[C@@H](NC(=O)[C@H](CO)NC(=O)[C@H](CC(C)C)NC(=O)[C@H](CCC(=O)O)NC(=O)[C@H](CO)NC(=O)[C@H](C)NC(=O)CC[C@H](NC(=O)CCCCCCCCCCCCCCCCCCC(=O)O)C(=O)O)[C@@H](C)O)C(C)C)C(=O)N[C@@H](CO)C(=O)N[C@@H](CCC(=O)O)C(=O)N[C@@H](CCC(=O)O)C(=O)N[C@@H](CC(C)C)C(=O)N[C@@H](Cc1c[nH]cn1)C(=O)N[C@@H](CCCNC(=N)N)C(=O)N[C@@H](CC(C)C)C(=O)N[C@@H](CCC(=O)O)C(=O)N[C@@H](CC(=O)O)C(=O)N[C@@H](Cc1ccc(O)cc1)C(=O)N1CCC[C@H]1C(=O)N[C@@H](CCCNC(=N)N)C(=O)N[C@H](C(=O)N[C@@H](CC(=O)O)C(=O)N[C@H](C(=O)NCC(=O)N[C@@H](CO)C(=O)NCC(=O)N[C@@H](CO)C(=O)N1CCC[C@H]1C(N)=O)C(C)C)[C@@H](C)O
B6: calcitonin derivative M66 (peptide)
peptide: {C22 diacid-γGlu-AEEA-AEEA}-ASQLSTAVLGRLSEELHRLQDYPRTDVGSGSP-NH2
SMILES: CC(C)C[C@H](NC(=O)[C@H](CCCNC(=N)N)NC(=O)CNC(=O)[C@H](CC(C)C)NC(=O)[C@@H](NC(=O)[C@H](C)NC(=O)[C@@H](NC(=O)[C@H](CO)NC(=O)[C@H](CC(C)C)NC(=O)[C@H](CCC(N)=O)NC(=O)[C@H](CO)NC(=O)[C@H](C)NC(=O)COCCOCCNC(=O)COCCOCCNC(=O)CC[C@H](NC(=O)CCCCCCCCCCCCCCCCCCCCC(=O)O)C(=O)O)[C@@H](C)O)C(C)C)C(=O)N[C@@H](CO)C(=O)N[C@@H](CCC(=O)O)C(=O)N[C@@H](CCC(=O)O)C(=O)N[C@@H](CC(C)C)C(=O)N[C@@H](Cc1c[nH]cn1)C(=O)N[C@@H](CCCNC(=N)N)C(=O)N[C@@H](CC(C)C)C(=O)N[C@@H](CCC(N)=O)C(=O)N[C@@H](CC(=O)O)C(=O)N[C@@H](Cc1ccc(O)cc1)C(=O)N1CCC[C@H]1C(=O)N[C@@H](CCCNC(=N)N)C(=O)N[C@H](C(=O)N[C@@H](CC(=O)O)C(=O)N[C@H](C(=O)NCC(=O)N[C@@H](CO)C(=O)NCC(=O)N[C@@H](CO)C(=O)N1CCC[C@H]1C(N)=O)C(C)C)[C@@H](C)O

target: T1, human amylin receptor (AMY3) on …; assay: cell-based or functional assay

Binder	EC50/nM, CRE-luciferase in amylin receptor/CRE-luc CHO cells
B1	0.028 nM
B2	0.017 nM
B3	0.017 nM
B4	0.037 nM
B5	0.058 nM
B6	0.017 nM
